B1: anti-DLL3 trispecific protein, DLL3 binder 4H03 (protein, part only; not given: CD3 binder and albumin binder, part only)
chain, part: EVQLVESGGGLVQPGGSLTLSCAASGSRVSFLSMAWYRQAPGKKRELVAGISADGSTSYIDSVKGRFTISRDNAKNSVYLQMNSLRAEDTAVYYCYAYRWTTRYTYWGQGTLVTVSSGGGGSGGGSGGGGSGGGSHHHHHH
B2: anti-DLL3 trispecific protein, DLL3 binder 4A06 (protein, part only; not given: anti-CD3 fragment and anti-albumin domain, part only)
chain, part: EVQLVESGGGLVQPGGSLTLSCAASGSSVRFLSMAWYRQAPGKKRELVAGISRDGSTDYIDSVKGRFTISRDNAKNSVYLQMNSLRAEDTAVYYCYAYRWTTRRTYWGQGTLVTVSSGGGGSGGGSGGGGSGGGSHHHHHH
B3: anti-DLL3 trispecific protein, DLL3 binder 3F03 (protein, part only; not given: CD3 fragment and albumin sdAb, part only)
chain, part: EVQLVESGGGLVQPGGSLTLSCAASGSSVSFLSMAWYRQAPGKKRELVAGISADGSTDYIDSVKGRFTISRDNAKNSVYLQMNSLRAEDTAVYYCYAYRWRTRYTYWGQGTLVTVSSGGGGSGGGSGGGGSGGGSHHHHHH
B4: anti-DLL3 trispecific protein, DLL3 binder 3C011 (protein, part only; not given: anti-CD3 fragment and anti-albumin domain, part only)
chain, part: EVQLVESGGGLVQPGGSLTLSCAASGSSVRFLSMAWYRQAPGKKRELVAGISAHGSTDYIDSVKGRFTISRDNAKNSVYLQMNSLRAEDTAVYYCYAYRWRTRYTYWGQGTLVTVSSGGGGSGGGSGGGGSGGGSHHHHHH
B5: anti-DLL3 trispecific protein, DLL3 binder 1D02 (protein, part only; not given: CD3 binder and albumin binder, part only)
chain, part: EVQLVESGGGLVQPGGSLTLSCVASGSTSSINAMAWYRRAPGKQRELVAGISSNGSKVYADSVKGRFTISRDNAKNSVYLQMNSLRAEDTAVYYCYYFRQVSGSSMRYWGQGTLVTVSSGGGGSGGGSGGGGSGGGSHHHHHH
B6: anti-DLL3 trispecific protein, DLL3 binder 1H06 (protein, part only; not given: anti-CD3 fragment and anti-albumin sdAb, part only)
chain, part: EVQLVESGGGLVQPGGSLTLSCVASGTTSSINAMGWYRRAPGKQRELVAGISSDGSKVYVDSVKGRFTISRDNAKNSVYLQMNSLRAEDTAVYYCYYFRFLSGSSMRYWGQGTLVTVSSGGGGSGGGSGGGGSGGGSHHHHHH
B7: anti-DLL3 trispecific protein, DLL3 binder 2D02 (protein, part only; not given: anti-CD3 fragment and anti-albumin sdAb, part only)
chain, part: EVQLVESGGGLVQPGGSLTLSCVASGSTSSINALGWYRRAPGKQRELVAGISSDGSLVYADSVKGRFTISRDNAKNSVYLQMNSLRAEDTAVYYCYYFRIVSGSSMRYWGQGTLVTVSSGGGGSGGGSGGGGSGGGSHHHHHH
B8: anti-DLL3 trispecific protein, DLL3 binder 1E05 (protein, part only; not given: anti-CD3 fragment and anti-albumin domain, part only)
chain, part: EVQLVESGGGLVQPGGSLTLSCVASGSTSVINAMAWYRRAPGKQRELAAGISSDGSKVYAKSAKGRFTISRDNAKNSVYLQMNSLRAEDTAVYYCYYFNTVSGSSMRYWGQGTLVTVSSGGGGSGGGSGGGGSGGGSHHHHHH
B9: anti-DLL3 trispecific protein, DLL3 binder 1G05 (protein, part only; not given: anti-CD3 fragment and anti-albumin sdAb, part only)
chain, part: EVQLVESGGGLVQPGGSLTLSCVASGSTSSINAIGWYRRAPGKQRELVAGISSDGSKYYADSVKGRFTISRDNAKNSVYLQMNSLRAEDTAVYYCYYFRTVTGSSMRYWGQGTLVTVSSGGGGSGGGSGGGGSGGGSHHHHHH
B10: anti-DLL3 trispecific protein, DLL3 binder 3D010 (protein, part only; not given: CD3 binder and albumin binder, part only)
chain, part: EVQLVESGGGLVQPGGSLTLSCAASGSSKSFLSMAWYRQAPGKKRELVAGISADGSTSYIDSVKGRFTISRDNAKNSVYLQMNSLRAEDTAVYYCYAYRWTTRYTYWGQGTLVTVSSGGGGSGGGSGGGGSGGGSHHHHHH
B11: anti-DLL3 trispecific protein, DLL3 binder 3F08 (protein, part only; not given: CD3 fragment and albumin sdAb, part only)
chain, part: EVQLVESGGGLVQPGGSLTLSCAASGSRVSFLSMAWYRQAPGKKRELVAGISADGSTLYIDSVKGRFTISRDNAKNSVYLQMNSLRAEDTAVYYCYAYRWHTRYTYWGQGTLVTVSSGGGGSGGGSGGGGSGGGSHHHHHH
B12: anti-DLL3 trispecific protein, DLL3 binder 3H09 (protein, part only; not given: anti-CD3 fragment and anti-albumin domain, part only)
chain, part: EVQLVESGGGLVQPGGSLTLSCAASKSSVSFLSMAWYRQAPGKKRELVAGISADGSTDYIDSVKGRFTISRDNAKNSVYLQMNSLRAEDTAVYYCYAYRWTTRATYWGQGTLVTVSSGGGGSGGGSGGGGSGGGSHHHHHH
B13: anti-DLL3 trispecific protein, DLL3 binder 3C01 (protein, part only; not given: CD3 binder and albumin binder, part only)
chain, part: EVQLVESGGGLVQPGGSLTLSCAASGSSVRFLSMAWYRQAPGKKRELVAGISAHGSTDYIDSVKGRFTISRDNAKNSVYLQMNSLRAEDTAVYYCYAYRWSTRYTYWGQGTLVTVSSGGGGSGGGSGGGGSGGGSHHHHHH
B14: anti-DLL3 trispecific protein, DLL3 binder 3A05 (protein, part only; not given: anti-CD3 fragment and anti-albumin domain, part only)
chain, part: EVQLVESGGGLVQPGGSLTLSCAASGSSVSFLSMAWYRQAPGKKRELVAGISEAGSTDYIDSVKGRFTISRDNAKNSVYLQMNSLRAEDTAVYYCYAYRWRTRYTYWGQGTLVTVSSGGGGSGGGSGGGGSGGGSHHHHHH
B15: anti-DLL3 trispecific protein, DLL3 binder 4F02 (protein, part only; not given: anti-CD3 fragment and anti-albumin domain, part only)
chain, part: EVQLVESGGGLVQPGGSLTLSCAASGSTVSFLSMAWYRQAPGKKRELVAGISHDGSTDYIDSVKGRFTISRDNAKNSVYLQMNSLRAEDTAVYYCYAYRWTTRYTYWGQGTLVTVSSGGGGSGGGSGGGGSGGGSHHHHHH
B16: anti-DLL3 trispecific protein, DLL3 binder 4G02 (protein, part only; not given: CD3 binder and albumin binder, part only)
chain, part: EVQLVESGGGLVQPGGSLTLSCAASGSSVKFLSMAWYRQAPGKKRELVAGISRDGSTDYIDSVKGRFTISRDNAKNSVYLQMNSLRAEDTAVYYCYAYRWTTRHTYWGQGTLVTVSSGGGGSGGGSGGGGSGGGSHHHHHH
B17: anti-DLL3 trispecific protein, DLL3 binder 3B06 (protein, part only; not given: anti-CD3 fragment and anti-albumin sdAb, part only)
chain, part: EVQLVESGGGLVQPGGSLTLSCAASGKSVSFLSMAWYRQAPGKKRELVAGISKDGSTDYIDSVKGRFTISRDNAKNSVYLQMNSLRAEDTAVYYCYAYRWTTRYTYWGQGTLVTVSSGGGGSGGGSGGGGSGGGSHHHHHH
B18: anti-DLL3 trispecific protein, DLL3 binder 4C08 (protein, part only; not given: CD3 binder and albumin binder, part only)
chain, part: EVQLVESGGGLVQPGGSLTLSCVASGSQVSFLSMAWYRQAPGKKRELVAGISADGSTDYFDSVKGRFTISRDNAKNSVYLQMNSLRAEDTAVYYCYAYRWTRRYTYWGQGTLVTVSSGGGGSGGGSGGGGSGGGSHHHHHH
B19: anti-DLL3 trispecific protein, DLL3 binder 3A06 (protein, part only; not given: anti-CD3 fragment and anti-albumin domain, part only)
chain, part: EVQLVESGGGLVQPGGSLTLRCAASGSKVSFLSMAWYRQAPGKKRELVAGISADGSTDYVDSVKGRFTISRDNAKNSVYLQMNSLRAEDTAVYYCYAYRWTRRYTYWGQGTLVTVSSGGGGSGGGSGGGGSGGGSHHHHHH
B20: anti-DLL3 trispecific protein, DLL3 binder 3D05 (protein, part only; not given: CD3 binder and albumin binder, part only)
chain, part: EVQLVESGGGLVQPGGSLTLSCAASGSSVRFLSMAWYRQAPGKKRELVAGISADGSTDYIDSVKGRFTISRDNAKNSVYLQMNSLRAEDTAVYYCYAYRWTRRYTYWGQGTLVTVSSGGGGSGGGSGGGGSGGGSHHHHHH
B21: anti-DLL3 trispecific protein, DLL3 binder 4H09 (protein, part only; not given: anti-CD3 and anti-albumin domains, part only)
chain, part: EVQLVESGGGLVQPGGSLTLSCAASGSSVSKLSMAWYRQAPGKKRELVAGISADGSTDYRDSVKGRFTISRDNAKNSVYLQMNSLRAEDTAVYYCYAYRWTYRYTYWGQGTLVTVSSGGGGSGGGSGGGGSGGGSHHHHHH
B22: anti-DLL3 trispecific protein, DLL3 binder 4H07 (protein, part only; not given: anti-CD3 fragment and anti-albumin sdAb, part only)
chain, part: EVQLVESGGGLVQPGGSLTLSCAASGRSVSFLSMAWYRQAPGKKRELVAGISANGSTDYIDSVKGRFTISRDNAKNSVYLQMNSLRAEDTAVYYCYAYRWSTRYTYWGQGTLVTVSSGGGGSGGGSGGGGSGGGSHHHHHH

Each binder was assayed against biotinylated human DLL3 protein expressed as a human IgG1 fusion protein (human) (UniProt Q9NYJ7) (assay: Octet, biotinylated human DLL3-IgG1 fusion on streptavidin tips, single 50 nM, conditioned medium (relative KD)).
Sequence of biotinylated human DLL3 protein expressed as a human IgG1 fusion protein (human) (Q9NYJ7 27-492): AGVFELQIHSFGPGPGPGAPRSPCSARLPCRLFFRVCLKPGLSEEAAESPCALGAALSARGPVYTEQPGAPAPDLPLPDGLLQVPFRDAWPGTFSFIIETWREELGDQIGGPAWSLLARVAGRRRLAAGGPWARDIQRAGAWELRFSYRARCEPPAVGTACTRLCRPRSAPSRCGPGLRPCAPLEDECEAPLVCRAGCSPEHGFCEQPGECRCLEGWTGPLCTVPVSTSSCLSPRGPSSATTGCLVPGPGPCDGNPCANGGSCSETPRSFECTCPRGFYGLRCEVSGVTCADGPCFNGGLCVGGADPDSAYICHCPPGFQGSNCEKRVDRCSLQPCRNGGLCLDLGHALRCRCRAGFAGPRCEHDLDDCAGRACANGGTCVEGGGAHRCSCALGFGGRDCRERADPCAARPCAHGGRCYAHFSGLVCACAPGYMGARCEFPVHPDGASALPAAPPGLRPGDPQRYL
B1 was tested, and the Kd was 13 nM.
With B2 the Kd was 13 nM.
In the case of B3, the Kd is reported as 13 nM.
Binder B4 has a Kd of 14 nM.
With B5 the Kd was 14 nM.
For B6, the Kd was 14 nM.
Binder B7 has a Kd of 14 nM.
Work on B8 yielded a Kd of 14 nM.
B9 gave a Kd of 14 nM.
Work on B10 yielded a Kd of 14 nM.
Binder B11 has a Kd of 14 nM.
In the case of B12, the Kd is reported as 14 nM.
For B13, the Kd was 14 nM.
In the case of B14, the Kd is reported as 15 nM.
B15 was tested, and the Kd was 15 nM.
Work on B16 yielded a Kd of 15 nM.
B17 gave a Kd of 15 nM.
For B18, the Kd was 16 nM.
In the case of B19, the Kd is reported as 16 nM.
For B20, the Kd was 16 nM.
Work on B21 yielded a Kd of 16 nM.
With B22 the Kd was 16 nM.
